Test results taken from patent publication US20100303808A1 (published 2010).
Substitutions are numbered along the chain they refer to.

T1: human CD20 (human, UniProt P11836 1-297)
T1 construct: whole, on cells; also called human B-lymphocyte-restricted differentiation antigen; Bp35
T1 sequence (looked up): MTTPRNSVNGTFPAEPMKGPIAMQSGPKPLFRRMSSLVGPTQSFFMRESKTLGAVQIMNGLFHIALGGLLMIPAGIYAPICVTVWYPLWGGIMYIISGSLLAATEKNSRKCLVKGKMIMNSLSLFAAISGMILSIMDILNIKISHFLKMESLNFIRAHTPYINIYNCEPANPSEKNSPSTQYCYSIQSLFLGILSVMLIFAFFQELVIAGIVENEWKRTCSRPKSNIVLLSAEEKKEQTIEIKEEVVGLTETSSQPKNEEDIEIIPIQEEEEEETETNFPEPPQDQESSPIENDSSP

B1: rituximab (antibody, V domains shown)
VH: QVQLQQPGAELVKPGASVKMSCKASGYTFTSYNMHWVKQTPGRGLEWIGAIYPGNGDTSYNQKFKGKATLTADKSSSTAYMQLSSLTSEDSAVYYCARSTYYGGDWYFNVWGAGTTVTVSA
VL: QIVLSQSPAILSASPGEKVTMTCRASSSVSYIHWFQQKPGSSPKPWIYATSNLASGVPVRFSGSGSGTSYSLTISRVEAEDAATYYCQQWTSNPPTFGGGTKLEIK
B2: 1F5RHA x 1F5RKB11 (antibody, human IgG1, kappa, V domains shown)
VH: QVQLVQSGAEVKKPGASVKVSCKASGYTFTSYNMHWVRQAPGQRLEWIGAIYPGNGDTSYNQKFKGRVTVTRDTSANTAYMELSSLKSEDTAVYYCARSHYGSNYVDYFDYWGQGTLVTVSS
VL: EIVLTQSPSSLSASVGDRVTITCRASSSLSFMHWYQQKPGKAPKPWIYATSNLASGVPSRFSGSGSGTDYTLTISSLQPEDFATYFCHQWSSNPLTFGGGTKVEIKR
notes: also called RHA x RKB11; Variant D
B3: 1F5RHA x 1F5RKB12 (antibody, human IgG1, kappa, V domains shown)
VH: B2 VH
VL: EIVLTQSPGTLSLSPGERATLSCRASSSLSFMHWYQQKPGQAPRPWIYATSNLASGIPARFSGSGSGTDYTLTISRLEPEDFAVYFCHQWSSNPLTFGQGTKVELKR
notes: also called RHA x RKB12; Variant F
B4: 1F5RHA x 1F5RKF12 (antibody, human IgG1, kappa, V domains shown)
VH: B2 VH
VL: B3 VL with W46L, Y70F
notes: also called RHA x RKF12; 1F5RKF12 x 1F5RHA
B5: 1F5RHA x 1F5RKG11 (antibody, human IgG1, kappa, V domains shown)
VH: B2 VH
VL: B2 VL with W46L, Y70F, F86Y
notes: also called RHA x RKG11; 1F5RKG11 x 1F5RHA
B6: chimeric antibody c1F5 (c1F5VH x c1F5VK) (antibody, human IgG1, kappa, V domains shown)
VH: QVQLRQPGAELVKPGASVKMSCKASGYTFTSYNMHWVKQTPGQGLEWIGAIYPGNGDTSYNQKFKGKATLTADKSSSTAYMQLSSLTSEDSAVYYCARSHYGSNYVDYFDYWGQGTLVTVST
VL: QIVLSQSPAILSASPGEKVTMTCRASSSLSFMHWYQQKPGSSPKPWIYATSNLASGVPARFSGSGSGTSYSLTISRVEAEDAATYFCHQWSSNPLTFGAGTKVEIKR
notes: Mouse 1F5 variable regions on human gamma1 / kappa constant regions; also called chimeric 1F5
B7: 1F5RHA x chimeric c1F5VK (antibody, human IgG1, kappa, V domains shown)
VH: B2 VH
VL: B6 VL
notes: IgG1 kappa from HEK293T conditioned medium; also called chimeric VK x 1F5RHA
B8: 1F5RHB x chimeric c1F5VK (antibody, human IgG1, kappa, V domains shown)
VH: B2 VH with V68A, V70L, R72A, T74K
VL: B6 VL
notes: 1F5RHB is 1F5RHA with four back mutations
B9: chimeric c1F5VH x 1F5RKB11 (antibody, human IgG1, kappa, V domains shown)
VH: B6 VH
VL: B2 VL
notes: IgG1 kappa from HEK293T conditioned medium; also called chimeric VH x 1F5RKB11
B10: chimeric c1F5VH x 1F5RKB12 (antibody, human IgG1, kappa, V domains shown)
VH: B6 VH
VL: B3 VL
notes: IgG1 kappa from HEK293T conditioned medium

Molecular target: T1, human CD20
Assay: dissociation of DyLight 488-labelled antibody from Raji cells at 37 C in excess unlabelled antibody, FACS MFI; average of Studies 1 and 2
Design: unit not given here
Experimental: (§1) All antibodies were conjugated to a fluorescein-like fluorophore, DyLight 488, according to vendor instructions (Pierce Cat. No. 53025). Following conjugation, labeled antibody was separated from free dye using chromatography columns provided in the labeling kit. […] Purified labeled antibodies were stored at 4° C. in PBS protected from light.
(§2) To measure antibody dissociation from cells, 10⁶ Raji cells were suspended in PBS containing 1% bovine serum albumin (PBS/BSA). Labeled antibody was added to a final concentration of 5 ug/ml in a volume of 1.0 ml. Following a 30 minute incubation at 37° C., unlabeled (“cold”) antibody was added to a final concentration of 1000 ug/ml. Labeled cells mixed with cold antibody were returned to 37° C. for 4 hours. At 20-minute intervals, 100 ul aliquots of cells were withdrawn from each sample, 400 uL cold PBS/BSA containing propidium iodide was added and mean fluorescence intensity (MFI) of the cell population excluding dead cells (PI⁺) determined by FACS.

Row | Binder | Half-life (dissociation from Raji cells), average
1 | B1 | 24
2 | B2 | 52
3 | B3 | 68
4 | B4 | 66
5 | B5 | 65
6 | B6 | 58

Molecular target: T1, human CD20
Assay: dissociation of DyLight 488-labelled antibody from Raji cells at 37 C in excess unlabelled antibody, FACS MFI; Study 2
Design: unit not given here
Experimental: as §1, §2

Row | Binder | Half-life (dissociation from Raji cells)
7 | B1 | 24
8 | B2 | 59
9 | B3 | 64
10 | B4 | 65
11 | B5 | 63
12 | B6 | 57

Molecular target: T1, human CD20
Assay: cell-based or functional assay

Row | Binder | complement dependent cytotoxicity (CDC) on Raji cells, relative to rituximab [times less than rituximab]
13 | B5 | ~10

Molecular target: T1, human CD20
Assay: cell-based or functional assay
Remark: another data set of the same source

Row | Binder | LogEC50, complement dependent cytotoxicity (CDC) on Raji cells
14 | B1 | -1.73
15 | B2 | -1.06
16 | B3 | -1.13
17 | B4 | -1.15
18 | B5 | -0.773
19 | B6 | -0.781

Molecular target: T1, human CD20
Assay: ELISA on fixed Raji cells (CD20+), anti-human kappa detection
Experimental: Raji cells (80 μl; 1-2×10⁶ cells/ml in 24 ml with fresh growth medium diluted with 0.11 vol of 10×PBS (MPBS) and 8 ml 8% paraformaldehyde (in PBS)) were added to 96-well poly-D-lysine-coated plate and centrifuged at 2500 rpm (Beckman 6L) at 25° C. for 60 minutes. The pellets were washed 4 times with 400 μl PBS, Tween 20 (0.02% v/v). 50 μl of MPBS was added to each well after the final wash, and incubated for 1 hour at room temperature, and the blocking buffer was then discarded. Serial dilutions of the 1F5 antibodies were prepared in MPBS in a separate 96-well plate, transferred to the Raji-cell coated plate and incubated at room temperature for 1 hour. The antibody solution was then discarded and the plates were washed 6 times with 400 μl PBS buffer. Goat anti-human kappa (Sigma A7164) was prepared by diluting the stock antibody solution 1:2000 in MPBS, added to the washed wells, and incubated again at room temperature for 1 hour. The plates were again washed 6 times in 400 μl PBS buffer. 100 μl of K-blue TMB solution was added to each well. The reactions were stopped by added 50 μl red stop after 30 minutes, and the absorbance was read at 650 nm.

Row | Binder | binding result
20 | B7 | binds
21 | B8 | binds
22 | B9 | binds
23 | B10 | binds

Molecular target: T1, human CD20
Assay: dissociation of DyLight 488-labelled antibody from Raji cells at 37 C in excess unlabelled antibody, FACS MFI; Study 1
Design: unit not given here
Experimental: as §1, §2

Row | Binder | Half-life (dissociation from Raji cells)
24 | B1 | 24
25 | B2 | 44
26 | B3 | 72
27 | B4 | 67
28 | B5 | 67
29 | B6 | 59
